In publication PMC9294231, “gC1qR/C1qBP/HABP-1: Structural Analysis of the Trimeric Core Region, Interactions With a Novel Panel of Monoclonal Antibodies, and Their Influence on Binding to FXII” (Frontiers in Immunology, 2022):

What was measured:
wild-type gC1qR (human) [1] = target: wild-type gC1qR (human) (UniProt Q07021); assay: SEC; analytical gel filtration (Superdex 200 Increase 10/300 GL) of purified FXII, wild-type gC1qR and gC1qR/FXII in a Zn++-containing buffer, compared to size standards
[2] = target: gC1qR-avi, enzymatically biotinylated (human) (UniProt Q07021); assay: SPR; enzymatically biotinylated gC1qR-avi or gC1qR-DD-avi captured to 100 RU on an SA chip; FXII or FXIIa injected 1.6 to 800 nM; 25°C, HBS-T with 50 µM ZnCl2; ligand heterogeneity model with two independent binding sites; apparent
[3] = target: gC1qR-DD-avi, enzymatically biotinylated (human) (UniProt Q07021); assay: as above
[4] = target: HKH-20 HKH-20 peptide (Homo sapiens) (UniProt P01042); assay: ITC; conditions: cited from earlier work
gC1qR-D1 (human) [5] = target: gC1qR-D1 (human) (UniProt Q07021); assay: SEC; gel filtration on Superdex S200 in PBS (pH 7.4); solution behaviour shown in Figure S1 (not shown to me)
[6] = target: gC1qR-D1 (loop 1 deletion mutant) (human) (UniProt Q07021); assay: SEC; analytical gel filtration of purified gC1qR proteins on Superdex 200 Increase 10/300 GL, compared to size standards (670, 66, 13 kDa)
gC1qR-D2 (human) [7] = target: gC1qR-D2 (human) (UniProt Q07021); assay: SEC; gel filtration on Superdex S200 in PBS (pH 7.4); solution behaviour shown in Figure S1 (not shown to me)
[8] = target: gC1qR-D2 (loop 2 deletion mutant) (human) (UniProt Q07021); assay: SEC; analytical gel filtration of purified gC1qR proteins on Superdex 200 Increase 10/300 GL, compared to size standards (670, 66, 13 kDa)
[9] = target: gC1qR-DD (double loop deletion mutant) (human) (UniProt Q07021); assay: as above
gC1qR-DD (human) = gC1qR-DD (human) (UniProt Q07021); assay: SEC; gel filtration on Superdex S200 in PBS (pH 7.4); solution behaviour shown in Figure S1 (not shown to me)
wild-type gC1qR (human) [10] = target: wild-type gC1qR (human) (UniProt Q07021); assay: SEC; analytical gel filtration of purified gC1qR proteins on Superdex 200 Increase 10/300 GL, compared to size standards (670, 66, 13 kDa)
[11] = target: T1, wild-type gC1qR (residues 74-282) (human, UniProt Q07021 74-282); assay: SEC; gel filtration on Superdex S200 in PBS (pH 7.4); solution behaviour shown in Figure S1 (not shown to me)
T1 construct: gC1qR/C1qBP/HABP-1, human, residues 74-282 (the mature form of the 282-residue pre-pro protein); Expressed from vector pT7HMT; the tag was removed with TEV protease; also called C1qBP; HABP-1; source: E. coli BL21(DE3), purified (NiNTA, TEV digestion, gel filtration Superdex S200)
T1 sequence (looked up): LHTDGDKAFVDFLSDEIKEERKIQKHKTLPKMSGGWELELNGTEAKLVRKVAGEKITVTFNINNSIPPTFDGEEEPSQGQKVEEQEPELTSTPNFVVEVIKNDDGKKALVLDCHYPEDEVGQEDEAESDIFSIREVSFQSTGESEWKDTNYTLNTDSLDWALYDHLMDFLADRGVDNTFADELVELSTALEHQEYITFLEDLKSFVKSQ

[12] = target: T1, wild-type gC1qR (residues 74-282); assay: SPR; gC1qR proteins amine-coupled to a CMD200M chip (gC1qR 361 RU, D1 487 RU, D2 360 RU, DD 874 RU); HKH-20 injected 46.9 nM to 10 µM; 25°C, HBS-T (20 mM HEPES pH 7.4, 140 mM NaCl, 0.005% Tween-20); affinity (dose/response) model, apparent KD; conditions: both partners purified
gC1qR-D1 (human) [13] = target: gC1qR-D1 (human) (UniProt Q07021); assay: as above
gC1qR-D2 (human) [14] = target: gC1qR-D2 (human) (UniProt Q07021); assay: as above

Molecule: Factor XII (native) (natural protein)
- stoichiometry N (FXII monomer per gC1qR trimer) (wild-type gC1qR (human) [1]): 1

Molecule: activated Factor XIIa (FXIIa) (enzyme)
- KD-1 (first binding site) [2]: 0.27 nM
- KD-2 (second binding site) [2]: 134 nM
- ka-1 (first binding site) [2]: 408000 M⁻¹ s⁻¹
- ka-2 (second binding site) [2]: 48200 M⁻¹ s⁻¹
- kd-1 (first binding site) [2]: 9e-05 s⁻¹
- kd-2 (second binding site) [2]: 0.0063 s⁻¹
- KD-1 (first binding site) [3]: 0.12 nM
- KD-2 (second binding site) [3]: 178 nM
- ka-1 (first binding site) [3]: 1.13e+06 M⁻¹ s⁻¹
- ka-2 (second binding site) [3]: 63700 M⁻¹ s⁻¹
- kd-1 (first binding site) [3]: 0.000147 s⁻¹
- kd-2 (second binding site) [3]: 0.0112 s⁻¹

Molecule: gC1qR (from UniProt Q07021)
- Kd [4]: 6300 nM

Molecule: gC1qR-D1 (from UniProt Q07021 74-138; Q07021 164-282) (natural protein)
- stoichiometry N (gC1qR-D1 (human) [5]): 3

Molecule: gC1qR-D1 (loop 1 deletion mutant) (from UniProt Q07021 74-282) (domain or fragment)
- stoichiometry N [6]: 3

Molecule: gC1qR-D2 (from UniProt Q07021 74-189; Q07021 202-282) (natural protein)
- stoichiometry N (gC1qR-D2 (human) [7]): 3

Molecule: gC1qR-D2 (loop 2 deletion mutant) (from UniProt Q07021 74-282) (domain or fragment)
- stoichiometry N [8]: 3

Molecule: gC1qR-DD (double loop deletion mutant) (from UniProt Q07021 74-282) (domain or fragment)
- stoichiometry N [9]: 3

Molecule: gC1qR-DD (from UniProt Q07021 74-138; Q07021 164-189; Q07021 202-282) (natural protein)
- stoichiometry N (gC1qR-DD (human)): 3

Molecule: native coagulation factor XII (FXII) (natural protein)
- KD-1 (first binding site) [2]: 4.85 nM
- KD-2 (second binding site) [2]: 97.6 nM
- ka-1 (first binding site) [2]: 676000 M⁻¹ s⁻¹
- ka-2 (second binding site) [2]: 23700 M⁻¹ s⁻¹
- kd-1 (first binding site) [2]: 0.00316 s⁻¹
- kd-2 (second binding site) [2]: 0.0023 s⁻¹
- KD-1 (first binding site) [3]: 1.69 nM
- KD-2 (second binding site) [3]: 26.4 nM
- ka-1 (first binding site) [3]: 674000 M⁻¹ s⁻¹
- ka-2 (second binding site) [3]: 34800 M⁻¹ s⁻¹
- kd-1 (first binding site) [3]: 0.00114 s⁻¹
- kd-2 (second binding site) [3]: 0.00091 s⁻¹

Molecule: wild-type gC1qR (from UniProt Q07021 74-282) (domain or fragment; other documents disagree on this pair)
- stoichiometry N (wild-type gC1qR (human) [10]): 3

Molecule: wild-type gC1qR (residues 74-282) (from UniProt Q07021 74-282) (natural protein; other documents disagree on this pair)
- stoichiometry N [11]: 3

B1: peptide HKH-20 (peptide)
peptide: HKHGHGHGKHKNKGKKNGKH
notes: The discussion speaks of peptides derived from HMWK residues 493-516 in general; also called HKH-20 peptide; source: synthetic peptide (GenScript)
- Kd [12]: 8700 nM
- Kd (gC1qR-D1 (human) [13]): 10000 nM
- Kd (gC1qR-D2 (human) [14]): 10000 nM
